One block for each binder: values may come before it.
Legend:
[1] = molecular target: T1, adenosine-binding antibody SMB0002hH-G1m3/SMB0002hL-k0a; test: BLI (OctetHTX), target on streptavidin sensor, antibody 10 ug/mL, 30 C, with and without adenosine
T1 construct: also called biotinylated SMB0002hH-G1m3/SMB0002hL-k0
Protocol: Evaluation of the binding of each prepared and purified antibody to a complex of adenosine with an adenosine-binding antibody was performed using OctetHTX (ForteBio). Specifically, biotinylated SMB0002Fab prepared by the method described in Example 9, which was prepared with TBS or adenosine/TBS or SMB0002hH-G1m3/SMB0002hL-k0a biotinylated with EZ-Link Sulfo-NHS-SS-Biotin was bound to Dip and Read™ Streptavidin (SA) Biosensors (ForteBio). Subsequently, each purified antibody prepared at 10 μg/mL using TBS or adenosine/TBS was allowed to act, and the binding at 30° C. was evaluated.

[2] = molecular target: T2, negative control IC17 (IC17Hdk-F760mnP17/IC17L-k0); test: SPR (Biacore), 37 C; ligand antibody captured on SuRe protein A chip (1000 RU), Fab as analyte at 100 nM for 180 s; amount of binding per 1 RU of ligand
T2 construct: also called anti-KLH antibody
Protocol: (§1) SuRe protein A (GE Healthcare) prepared at 25 μg/mL using Acetate4.5 (GE Healthcare) was immobilized on sensor chip CM4 at approximately 1000 RU per flow cell using an amine coupling kit (GE Healthcare).
(§2) First, to evaluate the binding specificity of the clamping antibodies, a ligand was reacted at 37° C. for 60 seconds at a flow rate of 10 μL/min to capture 1000 RU, and an analyte prepared at 100 nM was allowed to act for 180 seconds at a flow rate of 30 μL/min, and the amount of binding was measured.

[3] = molecular target: CD3 antibody CE115HA056 (CE115HA056-F760mnP17/GLS3000-k0); test: as above
Protocol: as §1, §2

[4] = molecular target: CD3 antibody CE115HA000 (CE115HA000-F760mnP17/GLS3000-k0); test: as above
Protocol: as §1, §2

[5] = molecular target: CD3 antibody CE115HA146 (CE115HA146-F760mnP17/GLS3000-k0); test: as above
Protocol: as §1, §2

[6] = molecular target: T3, CD3ε epitope-fused GPC3 antibody (hGC33VHGP01-rabCH1hG1m/hGC33VL-rabk); test: as above
T3 construct: control for recognition of the peptide alone
Protocol: as §1, §2

[7] = molecular target: T4, CD3ε epitope-fused CE115HA146 (CE115HAGP13-rabIgG/GLS3000-rabk); test: SPR (Biacore T200), ligand captured on protein A, Fab 0-400 nM as analyte, 37 C
T4 construct: stands for the antigen/antibody complex; Rabbit constant regions; also called CE115HAPG13
Protocol: as §1
(§3) The sensor chip was regenerated by passing Glycine1.5 and 25 mM NaOH, each at a flow rate of 30 μL/min for 15 seconds. The dissociation constant KD (M) was calculated based on the association rate constant ka (1/Ms) and the dissociation rate constant kd (1/s), which are kinetic parameters calculated from the sensorgram obtained by the measurement. Biacore T200 Evaluation Software (GE Healthcare) was used for calculation of each parameter.

[8] = molecular target: T5, CD3ε epitope-fused CE115HA056 (CE115HAGP12-rabIgG/GLS3000-rabk); test: as above
T5 construct: rabbit constant regions; also called CE115HAPG12
Protocol: as §1, §3

CD3 antibody CE115HA146 (CE115HA146-F760mnP17/GLS3000-k0), sequence (heavy, as listed by the source, chain 1 of 2): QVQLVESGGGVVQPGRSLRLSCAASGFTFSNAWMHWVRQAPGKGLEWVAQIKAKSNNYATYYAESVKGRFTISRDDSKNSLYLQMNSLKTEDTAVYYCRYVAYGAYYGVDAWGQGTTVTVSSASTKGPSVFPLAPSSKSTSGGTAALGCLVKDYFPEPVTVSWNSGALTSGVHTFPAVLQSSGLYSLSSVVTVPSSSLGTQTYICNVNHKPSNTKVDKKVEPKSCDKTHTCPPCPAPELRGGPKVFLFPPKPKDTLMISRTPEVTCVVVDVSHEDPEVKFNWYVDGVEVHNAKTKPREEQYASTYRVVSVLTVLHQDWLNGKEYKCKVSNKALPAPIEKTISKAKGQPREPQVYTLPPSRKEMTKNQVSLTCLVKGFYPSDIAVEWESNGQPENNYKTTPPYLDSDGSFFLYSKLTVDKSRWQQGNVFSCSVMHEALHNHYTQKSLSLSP
CD3 antibody CE115HA146 (CE115HA146-F760mnP17/GLS3000-k0), sequence (light, as listed by the source, chain 2 of 2): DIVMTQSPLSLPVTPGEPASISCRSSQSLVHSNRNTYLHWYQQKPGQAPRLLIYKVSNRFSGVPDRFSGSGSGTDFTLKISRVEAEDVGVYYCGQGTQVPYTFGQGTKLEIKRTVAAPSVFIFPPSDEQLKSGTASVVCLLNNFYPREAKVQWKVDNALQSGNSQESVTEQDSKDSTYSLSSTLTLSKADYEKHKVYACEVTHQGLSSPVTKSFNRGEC
T1 sequence (VH, as listed by the source, chain 1 of 2): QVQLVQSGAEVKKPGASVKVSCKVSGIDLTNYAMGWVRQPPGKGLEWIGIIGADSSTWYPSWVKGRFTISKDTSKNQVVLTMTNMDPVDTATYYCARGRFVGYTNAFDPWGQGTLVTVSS
T1 sequence (V domain, as listed by the source, chain 2 of 2): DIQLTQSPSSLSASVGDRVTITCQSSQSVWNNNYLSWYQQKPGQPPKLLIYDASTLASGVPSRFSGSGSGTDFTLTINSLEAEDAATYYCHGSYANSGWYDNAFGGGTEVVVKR
CD3 antibody CE115HA056 (CE115HA056-F760mnP17/GLS3000-k0), sequence (heavy, as listed by the source, chain 1 of 2): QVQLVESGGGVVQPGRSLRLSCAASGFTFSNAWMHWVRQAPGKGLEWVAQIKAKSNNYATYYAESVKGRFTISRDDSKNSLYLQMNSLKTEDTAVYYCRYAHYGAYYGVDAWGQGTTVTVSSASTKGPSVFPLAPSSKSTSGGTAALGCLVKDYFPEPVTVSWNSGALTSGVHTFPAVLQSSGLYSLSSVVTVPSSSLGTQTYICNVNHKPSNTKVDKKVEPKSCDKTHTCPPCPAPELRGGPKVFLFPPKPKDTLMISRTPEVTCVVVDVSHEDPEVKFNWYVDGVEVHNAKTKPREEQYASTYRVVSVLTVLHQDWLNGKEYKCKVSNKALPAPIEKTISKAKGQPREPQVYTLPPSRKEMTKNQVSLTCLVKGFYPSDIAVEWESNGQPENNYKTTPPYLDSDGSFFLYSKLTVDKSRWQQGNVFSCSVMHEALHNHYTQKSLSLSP
T3 sequence (VH, as listed by the source, chain 1 of 2): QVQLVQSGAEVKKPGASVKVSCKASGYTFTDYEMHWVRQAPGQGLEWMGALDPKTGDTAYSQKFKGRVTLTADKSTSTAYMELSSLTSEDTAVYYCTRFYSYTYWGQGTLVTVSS
T3 sequence (VL, as listed by the source, chain 2 of 2): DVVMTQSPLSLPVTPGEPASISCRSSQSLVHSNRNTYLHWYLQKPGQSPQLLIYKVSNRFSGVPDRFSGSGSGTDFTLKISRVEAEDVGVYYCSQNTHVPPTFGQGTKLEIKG
T2 sequence (VH, as listed by the source, chain 1 of 2): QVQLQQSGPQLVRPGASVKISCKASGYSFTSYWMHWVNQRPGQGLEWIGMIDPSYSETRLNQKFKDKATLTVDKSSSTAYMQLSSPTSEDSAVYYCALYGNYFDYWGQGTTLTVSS
T2 sequence (VL, as listed by the source, chain 2 of 2): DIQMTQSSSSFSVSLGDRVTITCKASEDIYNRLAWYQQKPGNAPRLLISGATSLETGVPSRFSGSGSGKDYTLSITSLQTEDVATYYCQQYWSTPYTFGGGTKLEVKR
CD3 antibody CE115HA000 (CE115HA000-F760mnP17/GLS3000-k0), sequence (VH, as listed by the source, chain 1 of 2): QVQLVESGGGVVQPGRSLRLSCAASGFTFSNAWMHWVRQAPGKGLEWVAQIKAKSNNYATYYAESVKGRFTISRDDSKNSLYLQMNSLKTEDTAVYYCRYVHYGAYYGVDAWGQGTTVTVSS
CD3 antibody CE115HA000 (CE115HA000-F760mnP17/GLS3000-k0), sequence (VL, as listed by the source, chain 2 of 2): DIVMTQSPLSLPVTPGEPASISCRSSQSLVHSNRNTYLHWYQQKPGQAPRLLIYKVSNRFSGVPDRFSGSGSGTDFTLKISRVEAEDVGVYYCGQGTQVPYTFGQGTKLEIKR
T5 sequence (heavy, as listed by the source, chain 1 of 2): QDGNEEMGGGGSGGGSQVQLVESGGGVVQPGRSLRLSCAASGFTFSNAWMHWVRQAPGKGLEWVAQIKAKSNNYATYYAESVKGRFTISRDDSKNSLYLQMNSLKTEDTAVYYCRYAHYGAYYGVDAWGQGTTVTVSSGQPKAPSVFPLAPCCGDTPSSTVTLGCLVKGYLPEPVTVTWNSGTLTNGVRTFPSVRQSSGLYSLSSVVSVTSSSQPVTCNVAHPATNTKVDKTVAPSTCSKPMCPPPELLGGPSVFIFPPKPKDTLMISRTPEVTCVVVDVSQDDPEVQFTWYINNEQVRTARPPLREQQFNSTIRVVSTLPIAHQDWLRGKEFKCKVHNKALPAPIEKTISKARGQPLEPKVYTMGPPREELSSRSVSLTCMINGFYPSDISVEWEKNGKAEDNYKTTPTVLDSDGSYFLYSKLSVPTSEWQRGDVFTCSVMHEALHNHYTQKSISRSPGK
T5 sequence (light, as listed by the source, chain 2 of 2): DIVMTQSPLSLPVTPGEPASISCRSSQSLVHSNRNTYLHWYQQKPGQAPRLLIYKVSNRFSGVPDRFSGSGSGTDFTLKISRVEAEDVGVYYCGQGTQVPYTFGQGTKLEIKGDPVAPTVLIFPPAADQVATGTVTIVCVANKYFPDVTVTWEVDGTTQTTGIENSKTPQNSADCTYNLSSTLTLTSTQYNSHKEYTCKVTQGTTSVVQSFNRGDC
T4 sequence (heavy, as listed by the source, chain 1 of 2): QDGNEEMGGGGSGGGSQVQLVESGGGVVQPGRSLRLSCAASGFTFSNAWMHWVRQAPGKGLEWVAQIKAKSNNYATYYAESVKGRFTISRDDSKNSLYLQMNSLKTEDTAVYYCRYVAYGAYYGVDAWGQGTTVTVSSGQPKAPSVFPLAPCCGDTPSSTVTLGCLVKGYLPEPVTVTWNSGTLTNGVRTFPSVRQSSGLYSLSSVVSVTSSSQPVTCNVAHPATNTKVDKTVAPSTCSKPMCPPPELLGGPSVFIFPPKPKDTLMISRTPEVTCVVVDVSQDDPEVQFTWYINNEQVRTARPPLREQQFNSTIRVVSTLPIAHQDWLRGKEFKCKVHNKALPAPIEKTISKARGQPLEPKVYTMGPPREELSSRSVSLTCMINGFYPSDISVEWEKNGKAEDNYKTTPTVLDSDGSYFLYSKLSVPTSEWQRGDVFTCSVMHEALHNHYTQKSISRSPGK

binding result [1]: binds
B1: SC032 (antibody, human IgG1, kappa, V domains shown)
VH: QVQLQQSGAEVKKPGSSVKVSCKASGGTFSSYAISWVRQAPGQGLEWMGRIIPILGIANYAQKFQGRVTITADKSTSTAYMELSSLRSEDTAVYYCAREGLTPYYYGSELGNGMDVWGQGTTVTVSS
VL: DIQLTQSPSSLSTFVGDRVTITCRTSQNINSYLNWYQQKPGKAPKLLISTTSNLQSGVPSRFSGSGSGTDFTLTINNLQPEDFAIYYCQQTKSFPLTFGGGTKLEIKR
notes: also called adenosine-clamping antibody SC032

binding result [2]: no binding (tested: 100 nM)
binding result [3]: no binding (tested: 100 nM)
binding result [4]: no binding (tested: 100 nM)
binding result [5]: no binding (tested: 100 nM)
binding result [6]: no binding (tested: 100 nM)
B2: CLA0311 Fab fragment (from CLA0311VH-F760mnP17/CLA0311VL-k0C) (Fab, V domains shown)
VH: QSLEESGGGLVQPEGSLTLTCTASGFSLSSSYWICWVRQAPGKGLEWIGCIYTGSGGATHYASWAKGRFTISKTSSTTVTLQMTSLTAADTATYFCASAESGYYAGFFFAPWGPGTLVTVSS
VL: AFELTQTPSSVEAAVGGTVTIKCQASESIYSGLAWYKQKPGQPPKLLIYSASTLASGVSSRFKGSGSGTQFTLTISDLECADAATYYCQSYYGGSVTGYNTFGGGTEVVVKR
notes: Fab prepared from the full antibody with the Pierce Fab Preparation Kit; also called clamping antibody CLA0311

binding result [2]: no binding (tested: 100 nM)
binding result [3]: no binding (tested: 100 nM)
binding result [4]: no binding (tested: 100 nM)
binding result [5]: no binding (tested: 100 nM)
binding result [6]: no binding (tested: 100 nM)
Kd [7]: 17 nM
Kd [8]: 14 nM
B3: CLA0022 Fab fragment (from CLA0022VH-F760mnP17/CLA0022VL-k0C) (Fab, V domains shown)
VH: QSLEESGGDLVKPGASLTLTCTASGFSFSSSYWIYWVRQAPGKGLEWIACIYAGVNDITYYANWAKGRFTISKTSSTTVTLQMTSLTAADTATYFCAKGSPDDAFHSWGPGTLVTVSS
VL: DVVMTQTPASVSEPVGGTVTIKCQASQSIGNYLAWYQQKPGQPPKLLIYYASNLASGVSSRFKGSRSGTEFTLTINDLECADAATYYCQCAYYDSVYVTFGGGTEVVVKR
notes: Fab prepared from the full antibody with the Pierce Fab Preparation Kit; Rabbit-derived variable regions on human constant regions; also called clamping antibody CLA0022

binding result [2]: no binding (tested: 100 nM)
binding result [3]: no binding (tested: 100 nM)
binding result [4]: no binding (tested: 100 nM)
binding result [5]: no binding (tested: 100 nM)
binding result [6]: no binding (tested: 100 nM)
Kd [7]: 78 nM
Kd [8]: 74 nM
B4: CLA0028 Fab fragment (from CLA0028VH-F760mnP17/CLA0028VL-k0C) (Fab, V domains shown)
VH: QSLEESGGDLVKPGASLTLTCTASGFSFSSSYWIYWVRQAPGKGLEWIACIYAGSTSSTYYASWAKGRFTISKTSSTTVTLQMTSLTAADTATYFCAKGGPDDAFHSWGPGTLVTVSS
VL: DVVMTQTPASVSEPVGGTVTIKCQASQSIGNYLAWYQQKPGQPPKLLIYYASNLASGVSSRFKGSRSGTEFTLTISDLECADAATYYCQCAYYESSYVTFGGGTEVVVKR
notes: also called clamping antibody CLA0028

binding result [1]: binds
B5: SC044 (antibody, human IgG1, lambda, V domains shown)
VH: not shown
VL: QSVLTQPPSVSGAPGQRVTISCTGSSSNIGAGYDVHWYQQLPGTAPKLLIYGNSNRPSGVPDRFSGSKSGTSASLAITGLQAEDEADYYCQSYDDSRSAVVFGGGTKLTVLG
notes: also called adenosine-clamping antibody SC044

binding result [1]: binds
B6: SC045 (antibody, human IgG1, lambda, V domains shown)
VH: QVQLVESGGGLVQPGGSLRLSCAASGFTFSDHYMDWVRQAPGKGLEWVGRTRNKANSYTTEYAASVKGRFTISRDDSKNSLYLQMNSLKTEDTAVYYCARGPTLAYIGYMDYWGQGTLVTVSS
VL: QSVLTQPPSVSGAPGQRVTISCTGSSSNIGAGYDVHWYQQLPGTAPKLLIYGNSNRPSGVPDRFSGSKSGTSASLAITGLQAEDEADYYCQSYDGSLSVVVFGGGTKLTVLG
notes: also called adenosine-clamping antibody SC045

binding result [1]: binds
B7: SC002 (antibody, human IgG1, lambda, V domains shown)
VH: EVQLVQSGAEVKKPGASVKVSCKASGYTFTSYGISWVRQAPGQGLEWMGWISAYNGNTNYAQKLQGRVTMTTDTSTSTAYMELRSLRSDDTAVYYCARVSSGSQPDPPYYYYYGMDVWGQGTMVTVSS
VL: QSVLTQPASVSGSPGQSITISCTGTSSNVESYNLVSWYQQHPGKAPKFIIYEGTRRPSGISNRFSGANSGNAASLTISGLQAEDEADYYCLSYVPSRRRHVFGTGTKVTVLS
notes: also called adenosine-clamping antibody SC002

binding result [1]: binds
B8: SC003 (antibody, human IgG1, lambda, V domains shown)
VH: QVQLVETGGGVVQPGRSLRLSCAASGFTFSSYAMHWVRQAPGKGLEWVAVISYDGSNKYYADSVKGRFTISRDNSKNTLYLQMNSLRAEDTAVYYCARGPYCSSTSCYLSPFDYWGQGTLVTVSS
VL: QSVLTQPPSVSAAPGQKVTISCSGNTSNIGNNYVSWYQQLPGTAPKLLIYRNSDRPSGVPDRFSGSKSGTSASLAITGLQAEDEADYYCQSYDTSLTAVIFGGGTKLTVLG
notes: also called adenosine-clamping antibody SC003

binding result [1]: binds
B9: SC034 (antibody, human IgG1, lambda, V domains shown)
VH: QVQLQQSGAEVKKPGASVKVSCKASGYTFTSYGISWVRQAPGQGLEWMGWISAYNGNTNYAQKLQGRVTMTTDTSTSTAYMELRSLRSDDTAVYYCARDYHSTRPDWPPFPYYYYYGMDVWGQGTTVTVSS
VL: QSVLTQPHSVSESPGKTVTISCTRSSGRIAANNVQWYQQRPGSAPTTIIYEDNRRPSGVPDRFSGSIDGSSNSASLTISGLKPEDEADYYCQSYVSTTVVFGGGTKLTVLG
notes: also called adenosine-clamping antibody SC034

binding result [1]: binds
B10: SC001 (antibody, human IgG1, lambda, V domains shown)
VH: QVQLVQSGGGVVQPGRSLRLSCAASGFTFSSYAMHWVRQAPGKGLEWVAVISYDGSNKYYADSVKGRFTISRDNSKNTLYLQMNSLRAEDTAVYYCARVYQGGATPYYYYGMDVWGQGTMVTVSS
VL: SYELTQPPSASGTPGQRVTVSCSGSTSNIGNHAVNWYQQLPGTAPKLLIYTNDQRPSGVPNRFSGSKSGISASLAISGLQSEDEADYYCSAWDDSLIGYVFGAGTKVTVLG
notes: also called adenosine-clamping antibody SC001

binding result [1]: binds
B11: SC048 (antibody, human IgG1, lambda, V domains shown)
VH: QVQLQESGGGVVQPGRSLRLSCAASGFTFSSYAMHWVRQAPGKGLEWVAVISYDGSNKYYADSVKGRFTISRDNSKNTLYLQMNSLRAEDTAVYYCAKGYSYGPGYFFDYWGQGTLVTVSS
VL: SSELTQPPSVSVSPGQTANISCSADKLGGKYVSWYQQKPGQSPVLVMYQDKKRPSGIPERLSGSGSGNTATLTISGTQAMDEATYYCQTWDGRSLFFGGGTRLTVLS
notes: also called adenosine-clamping antibody SC048

binding result [1]: binds
B12: SC019 (antibody, human IgG1, lambda, V domains shown)
VH: EVQLVESGGGLVKPGGSLRLSCAASGFTFSDYYMSWIRQAPGKGLEWVSYISSSGSTIYYADSVKGRFTISRDNAKNSLYLQMNSLRAEDTAVYYCARASPNVNEGAFDIWGQGTMVTVSS
VL: QSVLTQPPSMSAAPGQKVTISCSGSGSNIGSSYVSWYQQLPGKAPRLLIYDNNKQVSWVPDRFSGSKSGTSASLVISGLQTGDEADYYCGTWDRSLSAGVFGGGTKVTVLG
notes: also called adenosine-clamping antibody SC019

binding result [1]: binds
B13: SC016 (antibody, human IgG1, lambda, V domains shown)
VH: EVQLVQSGGGLVQPGRSLRLSCAASGFTFDNHAMHWVRQAPGKGLEWVSRINWNSGGIDYADSVKGRFTISRDNAKNSLYLQMNSLRAEDTALYYCVKDRGSGWYDAFDLWGQGTMVTVSS
VL: SYELTQPPSVSVAPGQTTRIACGGDSVGSESVHWYQQRPGQAPVLVISYDSDRPSGIPERFSGSKSGNTATLTISRVEAGDEADYYCQVWNSASDHWVFGGGTKLTVLG
notes: also called adenosine-clamping antibody SC016

binding result [1]: binds
B14: SC014 (antibody, human IgG1, lambda, V domains shown)
VH: EVQLVQSGGGLVQPGRSLRLSCAASGFTFDDYAMHWVRQAPGKGLEWVSGISWNSGSIGYADSVKGRFAISRDNAKNSLYLQMNSLRAEDTALYYCAKAWNDDAFDIWGQGTMVTVSS
VL: QSVVTQPPSVSGAPGQRVTVSCTGSNSNIGAGYDVHWYQQLPGTAPKLLIYGSNNRPSGVPDRFSASRSGTSASLAITGLQAEDEAEYYCQTYDTGLSGPGVVFGGGTKVTVLS
notes: also called adenosine-clamping antibody SC014
